{
  "source": "paper PMC4296922",
  "about": "(ACS Applied Materials & Interfaces, 2014)",
  "key": {"[1]": {"molecular_target": "T1, aerolysin pore (activated aerolysin in a planar lipid bilayer) (UniProt P09167 24-445)", "T1 sequence (P09167 24-445)": "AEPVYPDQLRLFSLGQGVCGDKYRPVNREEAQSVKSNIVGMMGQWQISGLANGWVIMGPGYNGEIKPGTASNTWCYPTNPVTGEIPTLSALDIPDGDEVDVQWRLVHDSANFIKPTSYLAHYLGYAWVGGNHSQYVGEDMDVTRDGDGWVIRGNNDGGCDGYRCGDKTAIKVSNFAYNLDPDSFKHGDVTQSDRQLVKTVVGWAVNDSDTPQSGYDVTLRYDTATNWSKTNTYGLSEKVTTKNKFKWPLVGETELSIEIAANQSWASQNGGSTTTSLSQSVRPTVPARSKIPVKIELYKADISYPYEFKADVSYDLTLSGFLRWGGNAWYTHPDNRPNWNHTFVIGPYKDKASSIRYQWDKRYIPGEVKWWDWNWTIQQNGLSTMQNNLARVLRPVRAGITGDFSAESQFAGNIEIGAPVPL", "test": "single-channel nanopore current recording"}, "[2]": {"molecular_target": "T1, aerolysin pore (activated aerolysin in …)", "test": "single-channel nanopore current recording", "remark": "listed apart in the source"}},
  "note": "Like-named read-outs stand apart in the source and are kept apart here.",
  "data": [
    {"binder": "QFETSAAKLKRKYWWKNL", "note": "[synthetic peptide Sb2(76-93)s]", "values": [
      {"measurement": "kon", "setting": "[1]", "value": "8.7e+06", "unit": "M⁻¹ s⁻¹"},
      {"measurement": "kon", "setting": "[2]", "value": "8.1e+07", "unit": "M⁻¹ s⁻¹"}
    ]}
  ]
}
